Data reported in publication PMC11315935, “Multi-layered heterochromatin interaction as a switch for DIM2-mediated DNA methylation” (Nature Communications, 2024).

Tests used:
[1] = biological target: histone H3 peptide (residues 1-24) with H3K9me3, plus a C-terminal tryptophan (UniProt P68431 2-25, trimethyl-lysine at K9); test: cell-based or functional assay
[2] = biological target: T1, heterochromatin protein 1 (HP1), full length, residues 1-266 (Neurospora crassa, UniProt Q1K612 1-266); test: cell-based or functional assay
T1 sequence (looked up): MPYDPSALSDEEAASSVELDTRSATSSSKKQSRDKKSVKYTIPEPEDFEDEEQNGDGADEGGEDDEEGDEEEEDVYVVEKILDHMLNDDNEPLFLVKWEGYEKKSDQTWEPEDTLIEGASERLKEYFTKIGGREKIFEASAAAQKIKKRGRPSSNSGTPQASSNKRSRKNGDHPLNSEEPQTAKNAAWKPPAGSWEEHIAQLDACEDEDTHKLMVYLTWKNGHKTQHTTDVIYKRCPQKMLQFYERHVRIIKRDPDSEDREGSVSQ

B1: DIM2 (Defective-In-Methylation-2) N-terminal fragment, residues 1-1242, wild type (domain or fragment, Neurospora crassa, UniProt Q3Y3Z1 1-1242, looked up)
chain: MDSPDRSHGGMFIDVPAETMGFQEDYLDMFASVLSQGLAKEGDYAHHQPLPAGKEECLEPIAVATTITPSPDDPQLQLQLELEQQFQTESGLNGVDPAPAPESEDEADLPDGFSDESPDDDFVVQRSKHITVDLPVSTLINPRSTFQRIDENDNLVPPPQSTPERVAVEDLLKAAKAAGKNKEDYIEFELHDFNFYVNYAYHPQEMRPIQLVATKVLHDKYYFDGVLKYGNTKHYVTGMQVLELPVGNYGASLHSVKGQIWVRSKHNAKKEIYYLLKKPAFEYQRYYQPFLWIADLGKHVVDYCTRMVERKREVTLGCFKSDFIQWASKAHGKSKAFQNWRAQHPSDDFRTSVAANIGYIWKEINGVAGAKRAAGDQLFRELMIVKPGQYFRQEVPPGPVVTEGDRTVAATIVTPYIKECFGHMILGKVLRLAGEDAEKEKEVKLAKRLKIENKNATKADTKDDMKNDTATESLPTPLRSLPVQVLEATPIESDIVSIVSSDLPPSENNPPPLTNGSVKPKAKANPKPKPSTQPLHAAHVKYLSQELVNKIKVGDVISTPRDDSSNTDTKWKPTDTDDHRWFGLVQRVHTAKTKSSGRGLNSKSFDVIWFYRPEDTPCCAMKYKWRNELFLSNHCTCQEGHHARVKGNEVLAVHPVDWFGTPESNKGEFFVRQLYESEQRRWITLQKDHLTCYHNQPPKPPTAPYKPGDTVLATLSPSDKFSDPYEVVEYFTQGEKETAFVRLRKLLRRRKVDRQDAPANELVYTEDLVDVRAERIVGKCIMRCFRPDERVPSPYDRGGTGNMFFITHRQDHGRCVPLDTLPPTLRQGFNPLGNLGKPKLRGMDLYCGGGNFGRGLEEGGVVEMRWANDIWDKAIHTYMANTPDPNKTNPFLGSVDDLLRLALEGKFSDNVPRPGEVDFIAAGSPCPGFSLLTQDKKVLNQVKNQSLVASFASFVDFYRPKYGVLENVSGIVQTFVNRKQDVLSQLFCALVGMGYQAQLILGDAWAHGAPQSRERVFLYFAAPGLPLPDPPLPSHSHYRVKNRNIGFLCNGESYVQRSFIPTAFKFVSAGEGTADLPKIGDGKPDACVRFPDHRLASGITPYIRAQYACIPTHPYGMNFIKAWNNGNGVMSKSDRDLFPSEGKTRTSDASVGWKRLNPKTLFPTVTTTSNPSDARMGPGLHWDEDRPYTVQEMRRAQGYLDEEVLVGRTTDQWKLVGNSVSRHMALAIGLKFREAWLGTLYD
In the case of B1, the “in vitro DNA methylation of a 36-mer duplex by DIM2 with HP1 and H3K9me3 peptide, against the DIM2-HP1 mixture” value [1] is reported as ~90 fold.

B2: DIM2 (residues 1-1242) L134A/L139A double mutant (domain or fragment, Neurospora crassa, UniProt Q3Y3Z1 1-1242, looked up)
chain: MDSPDRSHGGMFIDVPAETMGFQEDYLDMFASVLSQGLAKEGDYAHHQPLPAGKEECLEPIAVATTITPSPDDPQLQLQLELEQQFQTESGLNGVDPAPAPESEDEADLPDGFSDESPDDDFVVQRSKHITVDAPVSTAINPRSTFQRIDENDNLVPPPQSTPERVAVEDLLKAAKAAGKNKEDYIEFELHDFNFYVNYAYHPQEMRPIQLVATKVLHDKYYFDGVLKYGNTKHYVTGMQVLELPVGNYGASLHSVKGQIWVRSKHNAKKEIYYLLKKPAFEYQRYYQPFLWIADLGKHVVDYCTRMVERKREVTLGCFKSDFIQWASKAHGKSKAFQNWRAQHPSDDFRTSVAANIGYIWKEINGVAGAKRAAGDQLFRELMIVKPGQYFRQEVPPGPVVTEGDRTVAATIVTPYIKECFGHMILGKVLRLAGEDAEKEKEVKLAKRLKIENKNATKADTKDDMKNDTATESLPTPLRSLPVQVLEATPIESDIVSIVSSDLPPSENNPPPLTNGSVKPKAKANPKPKPSTQPLHAAHVKYLSQELVNKIKVGDVISTPRDDSSNTDTKWKPTDTDDHRWFGLVQRVHTAKTKSSGRGLNSKSFDVIWFYRPEDTPCCAMKYKWRNELFLSNHCTCQEGHHARVKGNEVLAVHPVDWFGTPESNKGEFFVRQLYESEQRRWITLQKDHLTCYHNQPPKPPTAPYKPGDTVLATLSPSDKFSDPYEVVEYFTQGEKETAFVRLRKLLRRRKVDRQDAPANELVYTEDLVDVRAERIVGKCIMRCFRPDERVPSPYDRGGTGNMFFITHRQDHGRCVPLDTLPPTLRQGFNPLGNLGKPKLRGMDLYCGGGNFGRGLEEGGVVEMRWANDIWDKAIHTYMANTPDPNKTNPFLGSVDDLLRLALEGKFSDNVPRPGEVDFIAAGSPCPGFSLLTQDKKVLNQVKNQSLVASFASFVDFYRPKYGVLENVSGIVQTFVNRKQDVLSQLFCALVGMGYQAQLILGDAWAHGAPQSRERVFLYFAAPGLPLPDPPLPSHSHYRVKNRNIGFLCNGESYVQRSFIPTAFKFVSAGEGTADLPKIGDGKPDACVRFPDHRLASGITPYIRAQYACIPTHPYGMNFIKAWNNGNGVMSKSDRDLFPSEGKTRTSDASVGWKRLNPKTLFPTVTTTSNPSDARMGPGLHWDEDRPYTVQEMRRAQGYLDEEVLVGRTTDQWKLVGNSVSRHMALAIGLKFREAWLGTLYD
In the case of B2, the “in vitro DNA methylation of (CTA)12/(TAG)12 duplex with HP1 and H3(1-24)K9me3 peptide; reduction against WT DIM2” value [2] is reported as 14 fold.

B3: DIM2 (residues 1-1242) R1104A mutant (domain or fragment, Neurospora crassa, UniProt Q3Y3Z1 1-1242, looked up)
chain: MDSPDRSHGGMFIDVPAETMGFQEDYLDMFASVLSQGLAKEGDYAHHQPLPAGKEECLEPIAVATTITPSPDDPQLQLQLELEQQFQTESGLNGVDPAPAPESEDEADLPDGFSDESPDDDFVVQRSKHITVDLPVSTLINPRSTFQRIDENDNLVPPPQSTPERVAVEDLLKAAKAAGKNKEDYIEFELHDFNFYVNYAYHPQEMRPIQLVATKVLHDKYYFDGVLKYGNTKHYVTGMQVLELPVGNYGASLHSVKGQIWVRSKHNAKKEIYYLLKKPAFEYQRYYQPFLWIADLGKHVVDYCTRMVERKREVTLGCFKSDFIQWASKAHGKSKAFQNWRAQHPSDDFRTSVAANIGYIWKEINGVAGAKRAAGDQLFRELMIVKPGQYFRQEVPPGPVVTEGDRTVAATIVTPYIKECFGHMILGKVLRLAGEDAEKEKEVKLAKRLKIENKNATKADTKDDMKNDTATESLPTPLRSLPVQVLEATPIESDIVSIVSSDLPPSENNPPPLTNGSVKPKAKANPKPKPSTQPLHAAHVKYLSQELVNKIKVGDVISTPRDDSSNTDTKWKPTDTDDHRWFGLVQRVHTAKTKSSGRGLNSKSFDVIWFYRPEDTPCCAMKYKWRNELFLSNHCTCQEGHHARVKGNEVLAVHPVDWFGTPESNKGEFFVRQLYESEQRRWITLQKDHLTCYHNQPPKPPTAPYKPGDTVLATLSPSDKFSDPYEVVEYFTQGEKETAFVRLRKLLRRRKVDRQDAPANELVYTEDLVDVRAERIVGKCIMRCFRPDERVPSPYDRGGTGNMFFITHRQDHGRCVPLDTLPPTLRQGFNPLGNLGKPKLRGMDLYCGGGNFGRGLEEGGVVEMRWANDIWDKAIHTYMANTPDPNKTNPFLGSVDDLLRLALEGKFSDNVPRPGEVDFIAAGSPCPGFSLLTQDKKVLNQVKNQSLVASFASFVDFYRPKYGVLENVSGIVQTFVNRKQDVLSQLFCALVGMGYQAQLILGDAWAHGAPQSRERVFLYFAAPGLPLPDPPLPSHSHYRVKNRNIGFLCNGESYVQRSFIPTAFKFVSAGEGTADLPKIGDGKPDACVRFPDHRLASGITPYIAAQYACIPTHPYGMNFIKAWNNGNGVMSKSDRDLFPSEGKTRTSDASVGWKRLNPKTLFPTVTTTSNPSDARMGPGLHWDEDRPYTVQEMRRAQGYLDEEVLVGRTTDQWKLVGNSVSRHMALAIGLKFREAWLGTLYD
With B3 the “in vitro DNA methylation: activity-stimulation effect of HP1, reduction against WT DIM2” value [2] was ~8 fold and the “thermal shift assay: change of the Tm of DIM2 on co-incubation with HP1” value [2] was 2.5 °C.
